# Entries after “also recorded” stand apart in the source; their conditions may differ. No end group written: not given here.
# B1: Cdc20P1 (14-amino acid peptide corresponding to residues 124-137 of Cdc20) (peptide, UniProt Q12834 124-137, looked up)
# peptide: DVEEAKILRLSGKP
# notes: also called Cdc20P1 peptide; 15N-Cdc20P1
# Experiments:
# [1] = in words; cited from earlier work
# [2] = oral tablet; cited from earlier work
# [3] = in vivo; cited from earlier work
# [4] = cited from earlier work
# [5] = oral administration; cited from earlier work
# Mad2 [6] = target: T1, Mad2 (Homo sapiens, UniProt Q13257); assay: Tryptophan fluorescence titration of Mad2 with peptide; format: binding; parameters: made in house; settings: addition of peptide to saturation
# T1 sequence (Q13257 whole entry): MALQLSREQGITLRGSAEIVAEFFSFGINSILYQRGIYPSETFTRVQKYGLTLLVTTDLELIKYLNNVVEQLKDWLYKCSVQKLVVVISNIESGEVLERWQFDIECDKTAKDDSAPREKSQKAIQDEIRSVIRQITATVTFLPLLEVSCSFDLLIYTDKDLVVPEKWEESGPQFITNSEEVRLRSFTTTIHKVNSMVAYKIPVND
# Procedure: Binding affinity between Mad2 and Cdc20P1 was determined. Two tryptophan residues are located in the proximity of the C-terminal tail of Mad2 that is involved in binding to Cdc20. Thus, binding of Cdc20P1 may affect the tryptophan fluorescence of Mad2. The intensity of tryptophan fluorescence of Mad2 was indeed reduced by 70% upon the addition of Cdc20P1 to saturation. […] This is consistent with the fact that binding of Cdc20P1 to Mad2 occurs with an intermediate exchange rate on the NMR time scale. The relative low affinity of Cdc20P1 toward Mad2 may also be the cause of the slow aggregation phenomenon of the Mad2-Cdc20P1 complex. Thus, Mad2 ligands with higher affinity for Mad2 are required for structural studies.
# Mad2 [7] = target: T1, Mad2; assay: ELISA-type assay of phage display clones on Mad2; format: binding; parameters: made in house; settings: phage clone on Mad2
# Text: Phage display library with Mad2 was screened and several clones were sequenced and analyzed using ELISA-type assays.
# By coincidence, the MBP1 sequence was isolated again and the MBP1 phage clone gave an ELISA reading of 0.62 (OD at 410 nm). […] The peptides with higher ELISA readings than MBP1 are synthesized. As these peptides, including MBP1, contain tryptophan in their sequences, tryptophan fluorescence assay cannot be used to measure the affinities of these peptides toward Mad2. Alternative assays are developed and used.
# Mad2 [8] = target: T1, Mad2; assay: Aggregation of Mad2-peptide complex over time (HSQC after incubation at 30° C.); parameters: made in house; settings: incubation at 30° C. / extended periods of time
# Procedure: To confirm if the complex aggregated over time, an HSQC spectrum was acquired on a freshly prepared ^15N-Mad2-Cdc20P1 sample. This sample was then incubated at 30° C. (the temperature for NMR data acquisition) for 48 hours and another HSQC was acquired.
# HeLa cells = assay: Mitotic arrest by GFP-Mad2 overexpression in HeLa cells; format: cell-based; settings: co-transfection of plasmid encoding the peptide; cell shape, DNA-staining, FACS
# Text: Overexpression of Mad2 in HeLa cells causes a prolonged mitotic arrest because Mad2 at elevated levels inhibits APCCdc20 in these cells in the absence of spindle damage. […] The cells round up when they undergo mitosis while the interphase cells are flat. […] The cell cycle status of the transfected cells was also confirmed by DNA-staining and by FACS analysis.
# Mad2 [9] = target: T1, Mad2; assay: 1H-15N HSQC NMR binding and competition on 15N-labeled Mad2; parameters: made in house; settings: for binding to Mad2: change of the HSQC spectrum of Mad2: addition of peptide to 15N-labeled Mad2; for relative affinity toward Mad2 by competition: two peptides added to Mad2, HSQC spectrum
# Procedure: To determine whether MBP1 and Cdc20 bind to the same site on Mad2. Mad2 was pre-incubated with an excess amount of Cdc20P1. MBP1 was then added to the pre-formed Mad2-Cdc20P1 complex. HSQC spectra were taken before and after the addition of MBP1. Prior to the addition of MBP1, Mad2 formed a complex with Cdc20P1 as indicated by the HSQC spectrum. After the addition of MBP1, the HSQC spectrum of the resulting sample looked identical to that of the Mad2-MBP1 complex. Therefore, MBP1 effectively displaced Cdc20P1 away from Mad2 and formed a complex with Mad2 in the presence of Cdc20P1. […] However, it is also conceivable that MBP1 affects the binding of Cdc20P1 to Mad2 in an allosteric fashion.
# The relative affinity of Mad2-MBP2 was compared to Mad2-Cdc20P1 and Mad2-MBP1. […] However, when both MBP1 and MBP2 were added to Mad2, the HSQC spectrum of the resulting sample contained two sets of signals of roughly equal intensity: one set of signals belonged to Mad2-MBP1 while the other set was from Mad2-MBP2. […] Furthermore, the exchange between these two bound forms of Mad2 occurs with a rate that is slow on the NMR time scale.
# Mad2 [10] = target: T1, Mad2; assay: In vitro APC ubiquitination assay (Mad2 inhibition of APC^Cdc20, cyclin B1 substrate); format: biochemical; settings: peptide at 100 μM
# Text: To determine whether binding of MBP1 affects the association of Mad2 with the intact Cdc20, the inventors performed an in vitro APC ubiquitination assay. In this assay, a Myc-epitope tagged N-terminal fragment of human cyclin B1 was used as the substrate. Purified recombinant human E1, UbcH10 (E2), ATP, and ubiquitin were also included (FIG. 3A). In the presence of active APC (E3), ubiquitin was ligated to the lysine side chains of cyclin B1, forming cyclin-ubiquitin conjugates with isopeptide linkages. The reaction mixture was then analyzed by SDS-PAGE followed by immuno-blotting with an anti-Myc antibody. The appearance and the intensity of the higher molecular weight bands were then used as the criteria for the activity of APC.
# Addition of the APC activator, Cdc20, greatly stimulated the activity of APC. […] Therefore, MBP1 can block the biochemical function of Mad2 in vitro.
# [11] = target: T2, Mad2 protein (mitotic checkpoint protein Mad2, purified recombinant) (UniProt Q13257 1-205); assay: tryptophan fluorescence titration of Mad2 with Cdc20P1
# T2 construct: also called 15N-Mad2; free Mad2
# T2 sequence (Q13257 whole entry): as above
molecule,measurement,setting,value
"O=NN(CCCl)C(=O)NCCCl [Carmustine, 1,3 bis (2-chloroethyl)-1-nitrosourea]",solubility in water,[1],poorly soluble in water
"O=C(O)CCCc1ccc(N(CCCl)CCCl)cc1 [Chlorambucil, 4-[bis(2-chlorethyl)amino] benzenebutanoic acid]",absorption from the gastrointestinal tract,[2],rapidly and completely absorbed from the gastrointestinal tract
"O.O=P1(N(CCCl)CCCl)NCCCO1 (stereo not shown) [Cyclophosphamide, 2H-1,3,2-Oxazaphosphorin-2-amine, N,N-bis(2-chloroethyl)tetrahydro-, 2-oxide, monohydrate]",stability in the gastrointestinal tract,[3],stable in the gastrointestinal tract
"O=NN(CCCl)C(=O)NC1CCCCC1 [Lomustine, 1-(2-chloro-ethyl)-3-cyclohexyl-1 nitrosourea]",tissue levels versus plasma levels,[4]; 15 minutes after intravenous administration,comparable to plasma levels
same,radioactivity excreted in the form of degradation products,"[4]; within 24 hours, oral radioactive lomustine about 30 mg/m^2 to 100 mg/m^2",about half
"N[C@@H](Cc1ccc(N(CCCl)CCCl)cc1)C(=O)O [Melphalan, 4-[bis(2-chloroethyl)amino]-L-phenylalanine]",solubility in water,[1],insoluble in water
same,fraction of patients with multiple myeloma showing a favorable response,[5],one third to one half
DVEEAKILRLSGKP [Cdc20P1],reduction of intensity of tryptophan fluorescence of Mad2,Mad2 [6],70%
GWWHIPSPVLRP [clone 11],ELISA reading,Mad2 [7],1.37 OD at 410 nm
"MBP1: 12-residue Mad2-binding peptide identified by phage display, contains tryptophan; probably SWYSYPPPQRAV (SEQ ID NO:2)",ELISA reading,Mad2 [7],0.62 OD at 410 nm
same,aggregation of the Mad2-peptide complex,Mad2 [8],stable for extended periods of time and did not aggregate
same,effect on mitotic arrest caused by GFP-Mad2 overexpression,HeLa cells,counteracted the action of Mad2; also recorded: did not arrest in mitosis
same,binding to Mad2: change of the HSQC spectrum of Mad2,Mad2 [9],caused dramatic chemical shift changes of the majority of signals
same,relative affinity toward Mad2 by competition,Mad2 [9],affinity of MBP1 toward Mad2 is higher than that of Cdc20P1; also recorded: MBP1 and MBP2 bind to Mad2 with very similar affinities
same,effect on the ability of Mad2 to inhibit the ubiquitination activity of APC^Cdc20,Mad2 [10],blocked the ability of Mad2 to inhibit APC^Cdc20; also recorded: prevented Mad2 from inhibiting APCCdc20
"MBP2: Mad2-binding peptide from phage display sharing strong sequence similarity with Cdc20P1, no tryptophans; probably DARIIKLPVPKP (SEQ ID NO:3)",aggregation of the Mad2-peptide complex,Mad2 [8],did not form high molecular weight aggregates
same,binding to Mad2: change of the HSQC spectrum of Mad2,Mad2 [9],induced dramatic chemical shift changes of the majority of Mad2 signals
same,relative affinity toward Mad2 by competition,Mad2 [9],binds to Mad2 with a higher affinity than Cdc20P1; also recorded: MBP1 and MBP2 bind to Mad2 with very similar affinities
B1,Kd,[11],3.6 µM
